Laboratory results published in paper PMC12251713, “The Novel Transcription Factor BnaA01.KAN3 Is Involved in the Regulation of Anthocyanin Accumulation Under Phosphorus Starvation”.

Target: T1, BnaA01.KAN3-His (Brassica napus cv. Zhongshuang 11, UniProt A0A816XN48 1-312)
T1 sequence: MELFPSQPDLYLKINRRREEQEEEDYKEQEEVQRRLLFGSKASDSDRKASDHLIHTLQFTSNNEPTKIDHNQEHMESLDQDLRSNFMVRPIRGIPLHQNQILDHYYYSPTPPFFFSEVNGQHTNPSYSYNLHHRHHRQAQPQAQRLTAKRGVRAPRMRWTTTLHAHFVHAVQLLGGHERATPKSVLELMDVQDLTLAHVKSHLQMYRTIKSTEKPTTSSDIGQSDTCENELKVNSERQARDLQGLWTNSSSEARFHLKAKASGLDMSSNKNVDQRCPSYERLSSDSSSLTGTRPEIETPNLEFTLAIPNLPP
Assay: EMSA; LightShift Chemiluminescent EMSA Kit (Thermo 20148); buffer, salt, pH and temperature not stated
Conditions: protein: recombinant; tags: His (pET28a); label: biotin 3' end; blunt

B1: P1BS EMSA probe (dsDNA)
DNA 1: AGACTTTGATTTGCATTATTGCATATACGTAGTAGTATAATGGTACTATC
DNA 2: GATAGTACCATTATACTACTACGTATATGCAATAATGCAAATCAAAGTCT
binding result: binds
